Data: paper PMC9392717

System: His/Xpress-Gemin5 (pcDNA3Xpress-Gemin5)
Experiment: pull-down (UV-irradiated HEK293 cells, Ni-NTA, RT-qPCR)
Conditions: EMSA: RNA folded in 100 mM HEPES pH 8.0, 100 mM NaCl, 5.25 mM MgCl2, 37 C; binding in 40 mM Tris-HCl pH 7.5, 250 mM NaCl, 0.1% (w/v) bME, 15 min, room …

With L32-WT-luc mRNA (5'TOP) the binding signal (fold vs L32-CM6) was 5.
